Assay: yeast display, Sf9 membrane polyspecificity reagent, FACS + sequencing; frameworks hold sequencing errors
In short: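 Nanobodies from a synthetic yeast display library (Saccharomyces cerevisiae BJ5465), induced 36–48 hours with galactose, were stained 1 hour at 4 °C with 10% biotinylated, detergent-solubilized Sf9 membrane reagent, enriched on streptavidin microbeads, then FACS-sorted. Anti-HA (expression) and streptavidin (reagent binding) fluorescence set low and high (top ~1%) gates. Polyreactivity labels come from the gate of origin. Genes were colony-PCR amplified, MiSeq 2 × 250 sequenced and filtered by CDR length.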

| Sequence | polyreactivity (PSR sort gate) |
| --- | --- |
| QVQLVESGGGLVQAGGSLRLSCAASGRIYGIYAMGWYRQAPGKERDLVARITGGGSTNYADSVKGRFTISRDNAKYTVYLQMNSLKPEDTAVYYCAATVRRIVGNITRYDYWGQGTQVTVSS | low polyreactivity |
| QVQLVESGGGLDQARGSLRLSCAASGSTFGRYAIGWYRQAHGKERELVAAINSRGGRTYYADSVKGRFTISRDNAKNTVYLQMNSLKPEVTAVYYCAAPTGPKGYYSDRGDSWGQGTQVTLSS | low polyreactivity |
| QVQLVESGGGLVQAGGSLRLSCAASGFTFRYYAMGWYRQAPGKERELVAAITSGDSTYYADSVKGRFTISRDNAKNTVYLQMNSLKPEDTAVYYCNKDRRPTADFGYWGQGTQVTVSS | high polyreactivity |
| QVQLVESGGGLVQAGGSHRLSCAASGITFYWYAMGWYRQAPGKERELVAAITRSVGSTYYADSVKGRFTISRDNAKNTVYLQMNSLKPEDTAVYYCAADFYYYGFDYWGQGTQVTVSS | low polyreactivity |
| QVQLVESGGGIVQAGGSLRLSCAASGSTLWGNVMRSYRQAPGKERELVAVISKTGGSTYYADSVKGRFTISRDNAKNTVYLQMNSLKPEDSAVYYCATRWPYRSDWGLGTQVTVSS | high polyreactivity |
| QVQLVESGGGLVQAGGSLRLSCAASGFIFDKYVMGWYRQAPGKERELVAAISSGGSTYYADSVKGRFTISRDNAKNTVYLQMNSLKPEDTAVYYCNAGGFWPWVYGYDSWGQGTQVTVSS | high polyreactivity |
| QVQLVESGGGLVQAGGSLRLSCAASGFIFGINAMGWYRQAPGKEREFVATITSGGGTNYADSVKGLFTISRDNAKNTVYLQMHSLKPEDTAVYYGAAEEDYIYFYVSMDYWGQGTQVTVSS | low polyreactivity |
| QVQLGESGGGLVQAGGSLRLSCAASGFTFDFYAMGWYRPAPGKEWELVAAINWSGSSTYYADSVKGRFTISRDNAKNTDYLQMNSLKPEDTAVYYCAAQVYYTLFPDVYTMYYWGQGTQETVSS | high polyreactivity |
| QVQLVESGGGLVQAGGSLRLSCPASGSIFDRYAMGWYRQAPGKERELVAAISWSDSRTYYADSVKGRFTISRDNAKNTVYFQMNSLKPEDTAVYYCAADGSTWGDYRTYGYWGQGTQVTVSS | low polyreactivity |
| QVQLVESGGGLVQAGGSLRLTCAASGIIFDDYAMGWYRQAPGKERELVAAISWIGTTTYYADSVKGRFTISRDNAKKTVYFQMNILKPEDTAVYYCNARPYPSYKYDYWGQGTQVTVSS | high polyreactivity |
| QVQLVESGGGLVQAGGSLRLSCAASGRTFTHNVMGWYRQAPGKERELVAGISSTGGSTYYADSVKGRFTISRDNAKNTVYLQMNSLKPEDTAVYYCAVIGYHYSAISPPSQTRQGYDYWGQGTQVTVSS | low polyreactivity |
| QVQLVESAGGLVQAGGSLRLICAASGLIFYRNTMGWYRQAPGKERELVAAISVSGGSTNYADSVKGRFTISRDNAKNTVYLQMNILKPEDTAVYFCATRVNYGYYYWGQGTQVTVSS | high polyreactivity |
| QVQLVESGGGLVQAGGSLRLSCAASGFTFDRNAMGWYRQAPGKERGLVAAISSSGGRTYYADSVKGRFTISRDNAKNTVYLQMNSLKPEDTAVYYCAAVFFSRPSAYGSRYYWGQGTQVTVSS | high polyreactivity |
| QVQLVESGGGLVQAGGSHRISCAASGRTLPSYAMGWYRQAPGKERELVAAISYSGASTYYADSVKGRFTISRDNAKNTVYLQMNSLKPQDTAVYYCAVYRTFRYRYDSWGQGTQVTVSS | high polyreactivity |
| QVQLVESGGGLVQAGGSLRLSCAASGSTFVYYDMGWFRQAPGKERELVASISWSGGSTRYADSVKGRFTISRDNAKNTVYLQMNSLKPEDTAVYYCNKSNPDYDGLAIHAFDYWGQGTQVTVSS | low polyreactivity |
| QVQLVESGGGLVQAGGSLRLSCAASGRTFHAYAMGWSRQAPGKGRELVAAITRTGTTHYADSVKGRFTISRDNAKNTVYLQMNSLKPEDTAVYYCAAQHVRVDAQFVLQGYDYWGQGTQVTVSS | low polyreactivity |
| QVQLVESGGGLVQAGGSLRLSCAASGSTSLVNAMGWYRQAPGKERELVAAITRGGNTYYADSVKGRFTISRDNAKNTVYLQMNSLKPEDTAVYYCNVGQDALYRLEYWGQGTQVTVSS | low polyreactivity |
| QVQLVESGGGLVQAGGSLRLSCAASGRTFPRYVMGWYRPAPGKERELVASITSSGGSTYYADSVKGRLTISRDNAKNTVYLQMNSLKPEDTAVYYCAAYARPNSGPYAYRLDYWGQGTQVTVSS | high polyreactivity |
| QVQLVESGGGLVQAGGSLRLSCAASGLTFSRYAMGWYRQAPGKERELVAAIKGRGGSTYYADSVKGRFTISRDNAKNTVYLQMNSLKPEDTAVYYCAATTRGSYSGNRPAYYWGQCTQVTVSS | high polyreactivity |
| QVQLVESGGSLLQAGCSLRLSCAASGFIIAWYAMGWSRQAPGKEWELVAAISLSGGSTRYADSVKGRFTISRDNAKNPVYLQMNCLKPEDTAVYYCNVDRWASTEYDYWGQGTQVTVSS | low polyreactivity |
| QVQLVESGGGLVQAGGSLRLICAASGRTFPGYGMGWYRQAPGKERELVAVITSNGGITYYADSVKGRFTISRDNAKNTVYLQMNSLKPEDTAVYYCAAYEIYNEFDSWGQGTQVTVSS | low polyreactivity |
| QVQLVESGGGLVQAGGSLRLSCAASGSTFNSNAMGWYRQAPGKERELVASITWTDVSTYYADSVKGRFTISRDNAKNTVYLQMNSLKPEDTAVYYCAAVTGLSSNDGYDYWGQGTQVTVSS | low polyreactivity |

| Sequence | polyreactivity (PSR sort gate) |
| --- | --- |
| QVQLVESGGGLVQAGGSLRLSCAASGSIIARYAMGWYRQAPGKERELVAANTWSATSTYYADSVKGRFTISRDNAKNTVYLQMNSLKPEDTAVYYCNAGASYFLVISQSRGDYWGQGTQVTVSS | low polyreactivity |
| QVQLVESGGGLVQAGGSLRLSCAASGRTFYGNAMGWYRQAPGKERELVAGITRGGSTYYADSVKGRFTISRDNAKNTVYLQMNSLKPEDTAVYYCAATRYYSWGSRGGYWGQGTQVTVSS | high polyreactivity |
| QVQLVESGGGLVQAGGSLRLSCAASGSIFNGNAMGWYRQAPGKERELVAAISRNGGSTYYADSVKGRFTISRDNAKNTVYLQMNSLKPEDTAVYYCAVRKRPHGYLAFGYWGQGTQVTVSS | low polyreactivity |
| QVQLVDSGGGLVQAGGSLRLSCAASGSIFTDNAMGWYIQAPGKERDLVAAITGRGGNTYYADSLKGRFPISRDNAKNTVYLQMNSLKPEDTAVYYCAARIFRTRKPLGYWGQGTQVTVSS | high polyreactivity |
| QVQLVESGGGLVQAGGSLRLSCAASGRIFGGYAMGWYRQAPGKERELVAAIDLSGGSTYYADSVKGRFTISRDNAKNTVYLQMNSLKPEDNAVYYCAADAYPVYYYLSTYDPWYDYWGQGTQVTVSS | low polyreactivity |
| QVQLVESGGGLVQAGGSLRLSCAASGRIFYVYAMGWYRQAPGKEREFVAAITRRSGSTYYADSVKGRFTISRDKAKNTVYLQMNSLKPEDTAVYYCNARLKYAFPQVPPYDYWGQGTQVTVSS | high polyreactivity |
| QVQLQESGGGLVQAGGSLRLSCAASGTISTDSYMGWYRQAPGKERKFVASIGYGGITYYADSVKGRSTISRDSAKNTVYLQMNSLKPEDTAVYYCAVNSYYPDHYWYWGRGTQVTVSS | high polyreactivity |
| QVQLVESGGGLVQAGGSLRLSCAASGRIFGKYAMGWYRQAPWKERELVATISLSGVRTYYADSVKGRFTISRDNAKNTVYLQMNSLKPEDTAVYYCAAGYSSNGDYWGQGTQVTVSS | low polyreactivity |
| QVQLVESGGGLVQAGGSLRLSCAASGFTFFGYAMGWYRQEPGKERELVAAISTIDGDTYYADSVKGRFTISRDNAKNSFYFLMNSLKPEDTAVYYCAADDYIDGDDYWGQGTQVTVSS | low polyreactivity |
| QVQLVESGGGLVQAGGSLRLSCAASGSIFSLYAMGWYRQAPGKERELVAAISRGGSTNYADSVKGRFTISRDNAKNTVYLQMNSLKPEDTAVYYCNAGFGVRRKHITFYTWYDYWGQGTQVTVSS | low polyreactivity |
| QVQLVESGGGLVQAGGSLLLSCAASGSTCSYYAMGWYRQAPGKERQLVAAINRSGGSTYYADSVMGRFTISRDNAKNTVYVQMNSLKPEDTAVYSCAALRSKTVSYDRYDYWGQGTQVTVSS | high polyreactivity |
| QVQLVESGGGLVQAGGSLRLSCAASGSTFVDNAMGWYRQAPGKERELVAAITSSGGSTYYADSVKGRFTISRDNAQNTVYLQMNSLKPEDTAVYYCAADEWIVHDGYYSSYYYWGQGTQVTVSS | low polyreactivity |
| QVQLVESGGGLVQAGGSLRLSCAASGSTFNDYAMGWYRQAPGNERELVAGITWRGTSTYYADSVKGRFTISRDNAKNTVYLQMNSLKPEDTAVYYCNADHVYGGYQYDFDYWGQGTQVTVSS | low polyreactivity |
| QVQLVESGGGLVQAAGSLSLICAASGIIFQRSAKGWYRQAPVKERELVATLTISGGSTYYADSVKGRFTISREYAKNTVYLQMNRLKPEDTAVYYCAAALYYPTVRRRFGSDYYWGQGTQVTVSS | low polyreactivity |
| QVQLVESGGGLVQAGGSLRLSCAASGRISHRNAMGWYRQAPGKERELVAAITSGGSTNYADSVKGRFTISRDNAKNTVYLQMNSLKPEDTAVYYCTTTTYHWYYYRWEIFDYWGQGTQVTVSS | low polyreactivity |
| QVQLVESGGGLVPAGGSLRLSCAASGSIFVQNAMGWYRQAPGKERELVAVINSGDSTNYADSVKGRFTISRDNAKNTVYLQMNSLKPEDTAVYYCNADVSYTSEDQRALFTNVYYWGQGTQVTVSS | low polyreactivity |
| QVQLVESGGGIVQAGGILRLSCAASGRNLHGYTMGWYRQAPGKERELVATISSIGGSTYYADSVKGRFTISRDNAKNTVYLQMNSLKPEDTAVYYCAATRGRRYQSYYWGQGTQVTVSS | low polyreactivity |
| QVQLVESGGGLVQAGGSLRLSCAASGFIFDVNAMGWYRQAPGKERELVAAISRSGSSTYYADSVKGRFTISRDNAKNTVYFQMNSLKPEDTAVYYCAAEYYRNFYCSRGYWGQGTQVTVSS | high polyreactivity |
| QVQLVESGGGLVQAGGSRRLSCAASGIIFAQYAMGWYRQAPGKERELVDSISGGGSTTNYADSVKGRFTISRDNAKNTVYLQMNSLKPEDTAVYYCAARTRRRGGIYDYWGQGTQVTVSS | high polyreactivity |
| QVQLVESGGGLVQAGGSLRLSCAASGSIFRWYAMGWYRQAPGKERELVAAITWSASRTYYADSVKGRFTISRDNAKNTVYLQMNSLKPEDTAVYYCAADHDGPYAGYDSWGQGTQVTVSS | low polyreactivity |
| QVQLVESGGGLVQAGGSLRLSCAASGSIFYVYAMGWYRQAPGKERELVATIDWSGGSTYYADSVKGRFTISRDNAKNTVYLQMNSLKPEDTAVYYCAAPTEQDPFAPVAFYRYDYWGQGTQVTLSS | low polyreactivity |

Source: the nanobody polyreactivity screen of Harvey et al. (2022)
